# Values joined by “and” are separate entries in the source; they are usually repeats but may differ in a detail not shown here. Identical values can stand only once. No end group written: not given here.
# T1: AP-fusion of full length Sema3F (AP-Sema3F; residues 20-779) (UniProt Q13275 20-779)
# T1 construct: source: CHO cells, large-scale transient transfection from pAPtag-5
# T1 sequence (looked up): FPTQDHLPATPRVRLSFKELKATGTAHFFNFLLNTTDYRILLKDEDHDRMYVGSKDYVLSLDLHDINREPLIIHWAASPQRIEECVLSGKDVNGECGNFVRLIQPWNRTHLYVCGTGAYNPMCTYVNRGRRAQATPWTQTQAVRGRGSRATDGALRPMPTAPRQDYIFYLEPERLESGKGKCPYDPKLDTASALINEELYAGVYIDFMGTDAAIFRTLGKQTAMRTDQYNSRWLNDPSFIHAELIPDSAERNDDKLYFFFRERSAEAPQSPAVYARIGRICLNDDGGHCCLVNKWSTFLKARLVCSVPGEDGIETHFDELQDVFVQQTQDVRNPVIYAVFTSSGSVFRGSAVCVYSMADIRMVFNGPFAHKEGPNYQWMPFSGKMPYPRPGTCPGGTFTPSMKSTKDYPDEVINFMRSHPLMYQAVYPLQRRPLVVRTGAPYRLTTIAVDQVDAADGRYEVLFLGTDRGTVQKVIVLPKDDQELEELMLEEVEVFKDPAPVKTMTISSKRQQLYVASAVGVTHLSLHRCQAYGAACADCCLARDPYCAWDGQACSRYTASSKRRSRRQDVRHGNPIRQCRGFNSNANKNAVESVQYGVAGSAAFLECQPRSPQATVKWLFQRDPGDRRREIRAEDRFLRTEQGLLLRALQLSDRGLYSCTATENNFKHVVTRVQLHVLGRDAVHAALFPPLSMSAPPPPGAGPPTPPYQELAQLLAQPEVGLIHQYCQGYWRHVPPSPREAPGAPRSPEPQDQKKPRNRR
# T2: AP-fusion of the Sema3F Ig and basic domains (AP-Sema3F-Ig-basic; residues 605-779) (UniProt Q13275 605-779)
# T2 construct: semaphorin 3F (Sema3F), Ig and basic domains, residues 605-779; source: CHO cells, large-scale transient transfection from pAPtag-5
# T2 sequence (looked up): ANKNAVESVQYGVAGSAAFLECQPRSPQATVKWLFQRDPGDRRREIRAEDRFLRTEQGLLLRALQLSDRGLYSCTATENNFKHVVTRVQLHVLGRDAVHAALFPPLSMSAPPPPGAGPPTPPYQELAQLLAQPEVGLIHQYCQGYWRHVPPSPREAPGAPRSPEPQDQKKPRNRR
# B1: C-furSema3A (peptide of the C-terminal basic domain of furin processed Sema3A; residues 718-769) (peptide, UniProt Q14563 718-769, looked up)
# peptide: MDEFCEQVWKRDRKQRRQRPGHTPGNSNKWKHLQENKKGRNRRTHEFERAPR
# modifications: also: dimer via intermolecular disulfide (oxidized)
# notes: semaphorin 3A (Sema3A), C-terminal basic domain of the furin processed form, residues 718-769; source: synthetic peptide (Neo-Peptide, Cambridge, MA), oxidized and purified
# B2: C-furSema3F (peptide of the C-terminal basic domain of furin processed Sema3F; residues 740-779) (peptide, UniProt Q13275 740-779, looked up)
# peptide: GLIHQYCQGYWRHVPPSPREAPGAPRSPEPQDQKKPRNRR
# modifications: also: dimer via intermolecular disulfide (oxidized)
# notes: semaphorin 3F (Sema3F), C-terminal basic domain of the furin processed form, residues 740-779; source: synthetic peptide (LifeTein, South Plainfield, NJ), oxidized and purified
# B3: Nrp1 b1b2 domains (human neuropilin-1) (domain or fragment, UniProt O14786 274-586, looked up)
# chain: KCMEALGMESGEIHSDQITASSQYSTNWSAERSRLNYPENGWTPGEDSYREWIQVDLGLLRFVTAVGTQGAISKETKKKYYVKTYKIDVSSNGEDWITIKEGNKPVLFQGNTNPTDVVVAVFPKPLITRFVRIKPATWETGISMRFEVYGCKITDYPCSGMLGMVSGLISDSQITSSNQGDRNWMPENIRLVTSRSGWALPPAPHSYINEWLQIDLGEEKIVRGIIIQGGKHRENKVFMRKFKIGYSNNGSDWKMIMDDSKRKAKSFEGNNNYDTPELRTFPALSTRFIRIYPERATHGGLGLRMELLGCEVE
# notes: neuropilin-1 (Nrp1), human, b1b2 coagulation factor domains; Limits of the b1b2 construct are in the cited earlier work; about residues 273-586 as I recall; also called soluble Nrp1; wild-type Nrp1
# B4: Nrp2 b1b2 domains (human neuropilin-2) (domain or fragment, UniProt O60462 276-595, looked up)
# chain: QCNVPLGMESGRIANEQISASSTYSDGRWTPQQSRLHGDDNGWTPNLDSNKEYLQVDLRFLTMLTAIATQGAISRETQNGYYVKSYKLEVSTNGEDWMVYRHGKNHKVFQANNDATEVVLNKLHAPLLTRFVRIRPQTWHSGIALRLELFGCRVTDAPCSNMLGMLSGLIADSQISASSTQEYLWSPSAARLVSSRSGWFPRIPQAQPGEEWLQVDLGTPKTVKGVIIQGARGGDSITAVEARAFVRKFKVSYSLNGKDWEYIQDPRTQQPKLFEGNMHYDTPDIRRFDPIPAQYVRVYPERWSPAGIGMRLEVLGCDWT
# notes: neuropilin-2 (Nrp2), human, b1b2 coagulation factor domains; Limits of the b1b2 construct are in the cited earlier work; also called soluble Nrp2; wild-type Nrp2
# Target: VEGF-A165
# Experiment: AP-Nrp binding to VEGF-A affinity plates
# Conditions: parent: est. 100; read off a plot
row,percent of parent,Molecule
1,34%,"AP-Nrp1 b1b2, wild-type K350Q; K351N; K352G"
2,11%,"AP-Nrp1 b1b2, wild-type 299-TN-300 replaced by DGR (TN/DGR)"
3,510%,"AP-Nrp2 b1b2, wild-type Q353K; N354K; G355K"
4,38%,"AP-Nrp1 b1b2, wild-type E304Q; R305Q"
5,41%,"AP-Nrp1 b1b2, wild-type E285R"
6,310%,"AP-Nrp2 b1b2, wild-type R287E"
7,310%,"AP-Nrp2 b1b2, wild-type 301-DGR-303 replaced by TN (DGR/TN)"
8,60%,"AP-Nrp2 b1b2, wild-type Q307E; Q308R"

# Target: B3
# Experiment: AP-fusion solid-phase plate binding assay (competition); C-furSema peptides titrated with AP-VEGF-A (100 µmole p-NPP hydrolyzed/min/L) in incubation buffer on low density Nrp1 affinity plates, 1 h at 25°C; pair: peptide and adsorbed Nrp1
# Conditions: both partners purified
row,IC50,Molecule
1,67 nM,B1
2,22 nM,B2

# Target: T1, AP-fusion of full length Sema3F …
# Experiment: AP-fusion solid-phase plate binding assay (competition); low density Nrp1 affinity plates; soluble Nrp1 or Nrp2 combined with AP-Sema3F (648 µmole p-NPP hydrolyzed/min/L) in incubation buffer (20 mM Tris pH 7.5, 300 mM NaCl), 1 h at 25°C; whether AP-Sema3F was purified is not told
# Conditions: not given
row,IC50,Molecule
1,2000 nM,B3
2,2700 nM,B4

# Target: T2, AP-fusion of the Sema3F Ig and basic …
# Experiment: AP-fusion solid-phase plate binding assay (competition); high density Nrp1 affinity plates (50 ng/µl); soluble Nrp1 or Nrp2 combined with AP-Sema3F-Ig-basic (181 µmole p-NPP hydrolyzed/min/L) in binding buffer (20 mM Tris pH 7.5, 50 mM NaCl), 1 hr at 25°C; whether the AP fusion was purified is not told
# Conditions: not given
row,IC50,Molecule
1,1200 nM,B3
2,6200 nM,B4

# Target: AP-fusion of VEGF-A164 (AP-VEGF-A)
# Experiment: AP-fusion solid-phase plate binding assay (competition); Nrp1 b1b2 adsorbed on 96 well plates (2.5 ng/µl, low density); soluble Nrp titrated with AP-VEGF-A (155 µmole p-NPP hydrolyzed/min/L) in 20 mM Tris pH 7.5, 300 mM NaCl, 1 hr at 25°C; retained AP activity read at 405 nm; whether AP-VEGF-A was purified is not given
# Conditions: not given
row,IC50,Molecule
1,1800 nM,B3
2,310000 nM,B4

# Target: AP-fusion of VEGF-A164 (AP-VEGF-A)
# Experiment: as above
# Conditions: not given
# Remark: another data set of the same source
row,IC50,Molecule
1,1600 nM and 2000 nM,B3
2,120000 nM and 160000 nM and 200000 nM,B4

# — publication PMC3493496, “Mechanism of Selective VEGF-A Binding by Neuropilin-1 Reveals a Basis for Specific Ligand Inhibition” (PLoS ONE, 2012)
